± gives the uncertainty stated by the source.
B1: Connector enhancer of kinase suppressor of ras 2, residues 9 to 71; numbered along this chain, Q8WXI2 (parent)
chain: SKWSPSQVVDWMKGLDDCLQQYIKNFEREKISGDQLLRITHQELEDLGVSRIGHQELILEAVD

Variants of: B1
Assay: abundance fitness (aPCA) (normalised: wild type 0, dead -1); higher = more abundant; growth selection in yeast, the domain comes from the species named
Conditions: Homo sapiens

Variant	abundance fitness
L47C	-0.592 ± 0.083
L47R	-0.688 ± 0.038
L47Q	-0.838 ± 0.073
L47Y	-0.72 ± 0.067
L47P	-0.762 ± 0.048
L47W	-0.622 ± 0.047
L47D	-0.857 ± 0.061
L47F	-0.612 ± 0.072
L47G	-0.857 ± 0.038
L47V	-0.423 ± 0.025
L47T	-0.805 ± 0.049
L47M	-0.083 ± 0.039
L47N	-0.783 ± 0.059
L47A	-0.681 ± 0.032
L47S	-0.813 ± 0.041
L47E	-0.795 ± 0.038
L47I	0.003 ± 0.064
L47H	-0.785 ± 0.08
S50A	-0.125 ± 0.15
S50C	-0.068 ± 0.067
S50F	-0.139 ± 0.058
S50Y	-0.05 ± 0.17
S50N	-0.471 ± 0.34
S50P	-0.391 ± 0.088

Variant	abundance fitness
S50R	-0.05 ± 0.076
S50D	-0.172 ± 0.1
S50H	0.239 ± 0.17
S50M	-0.09 ± 0.1
S50T	0.039 ± 0.055
S50G	-0.258 ± 0.09
S50K	0.278 ± 0.29
S50L	-0.072 ± 0.033
S50I	-0.571 ± 0.26
S50E	0.024 ± 0.12
G48T	-0.865 ± 0.08
G48M	-0.871 ± 0.091
G48H	-0.813 ± 0.1
G48S	-0.66 ± 0.036
G48D	-0.64 ± 0.075
G48K	-0.552 ± 0.058
G48N	-0.66 ± 0.078
G48C	-0.698 ± 0.055
G48W	-1.07 ± 0.071
G48A	-0.844 ± 0.053
G48I	-1.29 ± 0.33
G48L	-0.991 ± 0.055
G48V	-1.01 ± 0.064
G48P	-0.704 ± 0.11

Variant	abundance fitness
G48E	-0.692 ± 0.055
H54E	-0.412 ± 0.053
H54Q	-0.944 ± 0.093
H54N	-0.65 ± 0.036
H54S	-0.766 ± 0.039
H54I	-1.15 ± 0.14
H54T	-0.874 ± 0.049
H54C	-0.835 ± 0.07
H54G	-0.887 ± 0.056
H54M	-0.819 ± 0.052
H54K	-0.843 ± 0.052
H54R	-0.793 ± 0.043
H54A	-0.727 ± 0.036
H54W	-1.27 ± 0.17
H54Y	-0.863 ± 0.081
H54F	-0.886 ± 0.1
H54V	-0.982 ± 0.05
V49P	-0.875 ± 0.056
V49C	-0.374 ± 0.033
V49N	-1.1 ± 0.13
V49K	-0.925 ± 0.037
V49D	-0.777 ± 0.051
V49I	-0.088 ± 0.049
V49Q	-0.846 ± 0.065

Variant	abundance fitness
V49H	-0.926 ± 0.079
V49A	-0.833 ± 0.044
V49L	-0.621 ± 0.028
V49Y	-1.07 ± 0.11
V49E	-0.903 ± 0.054
V49T	-0.857 ± 0.062
V49W	-0.866 ± 0.052
V49F	-0.866 ± 0.12
I52E	-0.058 ± 0.042
I52F	-0.071 ± 0.052
I52Y	-0.067 ± 0.041
I52V	0.002 ± 0.038
I52G	-0.074 ± 0.025
I52D	-0.123 ± 0.04
I52P	0.038 ± 0.034
I52M	-0.086 ± 0.04
I52A	-0.011 ± 0.027
I52H	-0.047 ± 0.06
I52W	-0.174 ± 0.039
I52T	0.017 ± 0.035
I52K	0.048 ± 0.035
I52R	0.065 ± 0.024
I52N	-0.139 ± 0.057
G53Q	0.061 ± 0.034

Variant	abundance fitness
G53T	0.042 ± 0.027
G53E	0.085 ± 0.039
G53M	-0.009 ± 0.049
G53D	0.086 ± 0.042
G53K	0.077 ± 0.037
G53C	-0.05 ± 0.036
G53R	0.046 ± 0.027
G53F	-0.079 ± 0.026
G53H	-0.015 ± 0.048
G53N	0.084 ± 0.081
G53W	-0.151 ± 0.03
G53A	0.037 ± 0.033
L59I	-0.241 ± 0.048
L59K	-0.232 ± 0.034
L59E	-0.672 ± 0.041
L59F	-0.358 ± 0.056
L59Y	-0.61 ± 0.055
L59W	-0.758 ± 0.056
L59R	-0.363 ± 0.028
L59Q	-0.646 ± 0.069
L59P	-0.608 ± 0.075
L59H	-0.657 ± 0.068
L59C	-0.557 ± 0.048
L59S	-0.652 ± 0.043

Variant	abundance fitness
L59V	-0.552 ± 0.03
L59A	-0.653 ± 0.032
L59N	-0.741 ± 0.074
L59G	-0.674 ± 0.032
L59D	-0.594 ± 0.042
L59T	-0.607 ± 0.038
L59M	-0.032 ± 0.039
D63W	-0.311 ± 0.12
D63A	-0.001 ± 0.045
D63T	-0.055 ± 0.057
D63K	-0.059 ± 0.087
D63N	-0.024 ± 0.06
D63Y	-0.096 ± 0.051
D63H	0 ± 0.045
D63L	-0.176 ± 0.063
D63I	-0.274 ± 0.063
D63G	0.041 ± 0.035
D63Q	-0.039 ± 0.24
D63F	-0.233 ± 0.057
D63E	-0.012 ± 0.045
D63C	-0.025 ± 0.05
D63P	-0.792 ± 0.14
D63R	0.108 ± 0.046

Reference: the Human Domainome abundance scans (Beltran et al. 2025)
